T1: human GITR (Homo sapiens, UniProt Q9Y5U5)
T1 construct: coated with rat, mouse, human or cyno GITR extracellular domain (ECD) at 50 ng per well
T1 sequence (Q9Y5U5 26-162 limits assumed): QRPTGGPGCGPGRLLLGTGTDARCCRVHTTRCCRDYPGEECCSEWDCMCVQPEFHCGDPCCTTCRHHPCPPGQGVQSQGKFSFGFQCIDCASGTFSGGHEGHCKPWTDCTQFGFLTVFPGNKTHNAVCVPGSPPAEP

T2: human GITR (Homo sapiens, UniProt Q9Y5U5)
T2 construct: expressed in transfected cells; host or cells: HEK-293 (293) cells
T2 sequence (Q9Y5U5 26-241): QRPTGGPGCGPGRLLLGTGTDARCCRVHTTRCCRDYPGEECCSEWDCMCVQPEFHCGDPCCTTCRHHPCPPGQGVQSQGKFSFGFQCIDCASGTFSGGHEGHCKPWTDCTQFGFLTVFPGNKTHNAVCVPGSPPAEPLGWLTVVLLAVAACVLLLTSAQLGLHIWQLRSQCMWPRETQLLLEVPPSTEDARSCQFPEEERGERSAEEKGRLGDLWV

B1: MAB1: murine monoclonal GITR agonist antibody (parental); VH SEQ ID NO:61, VL SEQ ID NO:59 (antibody, V domains shown)
VH: QVQLKESGPGLVAPSQSLSITCTVSGFSLRSYGVDWVRQPPGKGLEWLGVIWGGGGTNYNSALMAKLSISKDKSKSQVFLKMNSLQTDDTAMYYCAKHAYGHDGGFAMDYWGQGTSVTVSS
VL: NIVMTQSPKSMSMSVGERVTLSCKASENVDTFVSWYQQKPDHSPKLLIYGASNRYTGVPDRFTGSGSATDFTLTISSVQAEDLADYHCGQSYSYPFTFGSGTKLEIK
B2: GITRL: recombinant human GITR ligand (GITR-L) (protein)
chain: ETAKEPCMAKFGPLPSKWQMASSEPPCVNKVSDWKLEILQNGLYLIYGQVAPNANYNDVAPFEVRLYKNKDMIQTLTNKSKIQNVGGTYELHVGDTIDLIFNSEHQVLKNNTYWGIILLANPQFIS

What was measured:
[1] = system: cynomolgus GITR; assay: ELISA binding to GITR extracellular domain, cyno
Protocol: (§1) Binding of the MABs to GITR from various species, various alanine mutant constructs or GITR extracellular domain—was assessed using a 384-well plate was coated with rat, mouse, human or cyno GITR extracellular domain (ECD) at 50 ng per well and incubated overnight at 4° C. The plate was blocked with a solution of 1% BSA in PBS for one hour at room temperature and then rinsed three times with PBST. The MAB was then diluted to 0.5 μg/mL or 1 μg/mL in PBS and 20 μL was added to each well. The plate was incubated for 1 hour at room temperature and then washed three times with PBST. Anti-human kappa antibody (Sigma #A7164), anti-human gamma antibody (Jackson Immunoresearch 109-036-098), goat anti-mouse antibody (Jackson ImmunoResearch 115-035-071) conjugated to HRP was diluted 1:5000 in Blocking Buffer (25 μL) and added to each well, or a hrp conjugated HIS antibody (QIAGEN 1014992) diluted 1:1000 in Blocking Buffer was added. The plate was incubated for 1 hour at room temperature, and then washed six times with PBST. 25 μL of SureBlue TMB (KPL 52-00-02) substrate was added to each well and the plate was incubated for about 10 min at room temperature. Plates were read at 650 nm in a spectrophotometer.

[2] = molecular target: T1, human GITR; assay: ELISA binding to GITR extracellular domain, human
Protocol: as §1

[3] = system: rodent GITR; assay: ELISA binding to GITR extracellular domain, rodent; set-up: species or system rat, mouse
Protocol: as §1

[4] = molecular target: T2, human GITR; assay: NFκB-Luciferase reporter gene assay, 293 cells with human GITR; type: cell-based; conditions: antibodies crosslinked
Protocol: To generate the 293-hGITR-NFκB reporter gene cells line, 293 cells were stably transfected with an NFκB-Luciferase reporter gene and human GITR (or cyno GITR). Activation of the GITR signaling pathway in these cells was determined by measuring the levels of luciferase induced within the cells after a 24 hour incubation with GITR-L or agonistic antibody. To assess the effects of cross-linking Abs, they were incubated with an excess of a F(ab′)2 goat anti-human Fcγ fragment specific antibody or protein A before using in the reporter gene assay.
Functional activity of MABs were tested in an NFkB reporter gene assay for agonist activity. MAB was diluted to 6 μg/mL in PBS and incubated for 30 minutes at room temperature in the presence/absence of a 3 fold excess of F(ab′)2 fragment goat anti-human Fcγ specific crosslinker. Alternatively, MAB was diluted to 6 μg/mL in PBS and incubated for 30 minutes at room temperature in the presence/absence of a 2 fold excess of Protein A. 10 μL of incubated MAB was then added to a 384 well white clear bottomed assay plate. A HEK-293 cell line stably transfected with hGITR and a NFκB reporter gene was diluted to 5×10^5 cells/mL and 20 μL of the cell suspension was added to each well. […] 30 μL of Cell Bright Glo was added to each well and the plate was read for luminescence on the Acquest.

Molecule | binding to cynomolgus GITR in ELISA [1] | binding to human GITR in ELISA [2] | binding to rodent GITR in ELISA [3] | NFκB activity / intracellular signaling [4]
B1 | binds | binds | not rodent GITR | –
B2 | – | – | – | activates intracellular signaling

From patent publication US20170306038A1, “COMPOSITIONS AND METHODS OF USE FOR AUGMENTED IMMUNE RESPONSE AND CANCER THERAPY” (priority 2014, published 2017)
